# Laboratory results from the supplement of paper PMC12042874.
# ± gives the uncertainty stated by the source.
# Assay: amyloid nucleation score (Sup35N fusion, yeast selection) (log enrichment); library NNK3; higher = more nucleation; inactive = no reads after selection
# Outline: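 The nucleation score is a DiMSum log enrichment of output over input reads, centred on the mode score of non-aggregating sequences. Sequences under 100 input reads were excluded, and reads came from Illumina sequencing of plasmid inserts. Psi-negative yeast expressing Sup35N fused to peptides of 20 random codons were induced with 100 μM copper sulfate for 24 hours and grown 7 days at 30°C on medium lacking adenine and uracil. Random libraries had three technical output replicates.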
row,Substance,amyloid nucleation score
1,FFISDVGETC,inactive
2,FFLAFKEQPRAYLISISTH,inactive
3,FFLNGVCDCLRIPCTNVYLY,inactive
4,FFMEIKYGWKV,0.898 ± 0.12
5,FFMPFRNLIHKLVTTEELYR,inactive
6,FFNIDVHARVSI,inactive
7,FFNKGCMFCSREAVIVQIWG,2.62 ± 0.082
8,FFSCGDKLSFF,inactive
9,FFSIT,inactive
10,FFSVGIKLDVFVWFWGEGHL,inactive
11,FFWLMDAPHPRRHVDERQLI,inactive
12,FFWVMISGVFLRRIHDSRSA,inactive
13,FFYNYSRSGLCYIIFSESPV,1.33 ± 0.095
14,FFYRVSVSLSRAKI,inactive
15,FGCCKRCRHNRVSKEFSWSC,inactive
16,FGICVDVGRAHIVKRSNRML,inactive
17,FGLITYFLL,1 ± 0.13
18,FGLVRTNRDILH,inactive
19,FGMVFHISIACKWTGFSMR,inactive
20,FGQDSPSVLTC,-0.381 ± 0.7
21,FGRGCHRSMTIGDLVFLLIT,inactive
22,FGRVT,inactive
23,FGSLPRQIMCMPA,inactive

row,Substance,amyloid nucleation score
1,FGSVERFLLDPLTGHVGRFF,inactive
2,FGTGDMCKQCRHDVVRHSCL,inactive
3,FGTMSSGYAGGNKKFHPHRY,inactive
4,FGWLYNLNVSDIGTGD,inactive
5,FHNAFAFLSHWGVMVRSFEG,inactive
6,FHVEVVAGCIVGNFGGVCVI,0.5 ± 0.28
7,FICCMLIMKVNYDTRLISSM,inactive
8,FICFFGYS,inactive
9,FIGMDIIKYLS,0.631 ± 0.16
10,FIITPTYIICQRLFY,inactive
11,FIMNARGVPLEGWWSDGSDK,inactive
12,FIRFWASVSTNCRLPFLLNR,inactive
13,FISPVL,inactive
14,FISRVMGSSR,inactive
15,FIVNSLPDLNALAHMSALLY,inactive
16,FIVSPPSNGANVY,inactive
17,FIVVVTYARWHSRYVSGWVS,inactive
18,FIVYMSTHRA,1.67 ± 0.11
19,FIYSFLSYHIWTFKPPVVVG,inactive
20,FKDMFPNLSTCLLIVRM,inactive
21,FKFALPHSNIGFTISSRFGC,0.478 ± 0.16
22,FKGTTMIGRYINRVVMWAWS,inactive
23,FKSSVKGEGYGKMGFQLLPF,inactive

row,Substance,amyloid nucleation score
1,FKVNLDVP,-0.263 ± 1.4
2,FLANPWCIVARLCSNHVIVH,inactive
3,FLAWYMTFMV,0.036 ± 0.88
4,FLCQFLRFFCIN,1.04 ± 0.13
5,FLCWIYDECKGVRCVRLGAI,inactive
6,FLDSSVW,inactive
7,FLFILPDNGPRWCSYTVGNV,inactive
8,FLFLLWCNMMPEMYVIAMNI,inactive
9,FLFTFKIHPLGGMFGVLILS,inactive
10,FLGGRTLTSLPE,inactive
11,FLGIDAPDWSMVSKAIGRMG,inactive
12,FLGVNNNSVVNLYELCD,inactive
13,FLIISCS,inactive
14,FLISIWGGIGNDNVSVVGVG,inactive
15,FLLERLSV,inactive
16,FLLSCK,inactive
17,FLLSVMRELSKYYYIIFSTS,inactive
18,FLLVFC,-0.021 ± 0.3
19,FLLVYWLVLVFPIVGNLMPE,inactive
20,FLQECRDCQGTVRNKSSAP,inactive
21,FLRCTRPPTASENIFRDINY,inactive
22,FLRYGCMHYLGRMGLY,-0.079 ± 0.34
23,FLSEIGADTTKSYWDTIPRF,-1.2 ± 2.5

row,Substance,amyloid nucleation score
1,FLSGVTWHAYMIHSVFMDRC,0.881 ± 0.21
2,FLVNEEPVQLHGAPVRYFKF,-0.504 ± 1.1
3,FLYRDDDHSYVSESDLNSCS,inactive
4,FMCNNRSILGICIFYDLRRN,2.64 ± 0.081
5,FMGADVAQRMFYKSANGCEW,inactive
6,FMGQFIYLSSRCNSSVDSEV,inactive
7,FMGTRTKLMALVYQEELSRS,inactive
8,FMKEVSGRQDLLRPIMIHNA,inactive
9,FMLWYSPKLFG,inactive
10,FMVDTHFGNAFCFYMYCC,2.26 ± 0.051
11,FMVMRVPRCPVDCNVPGGIN,inactive
12,FMYSFDLWYKRLNCLMMLVF,inactive
13,FNALSWSVDFLWYARTTCVD,inactive
14,FNAYNIFVKVPNVMPSS,2.19 ± 0.09
15,FNCSARNYGTRFFCLMRAGV,-0.654 ± 1.4
16,FNDNVVVVSDNVVRRITSKS,inactive
17,FNIGFSSDSYAPWLFMICEM,inactive
18,FNILSLSRTSNYPRHCLFRL,inactive
19,FNMCLASQAVIADLWVVFSW,-0.054 ± 1.3
20,FNSKRW,inactive
21,FNVVMSRYIYYCVMGVIRMS,inactive
22,FPILS,inactive
23,FPKLWLFNYYVNRRIRSSSF,inactive

row,Substance,amyloid nucleation score
1,FPSVIINLGISFFLSSELIV,1.08 ± 0.11
2,FPWFTEASPPEMKLDK,0.816 ± 0.23
3,FQARTPACPYVCSS,inactive
4,FQFCS,inactive
5,FQSDRVCFIGGWTSNRVGWM,0.699 ± 0.28
6,FQYKVSFPDRRASQKRWPLP,inactive
7,FRASVPPEVLPKFARVGMNA,inactive
8,FRDCMVINDMVVWDFCTSCA,inactive
9,FRITNWLSLYDKTEISHASI,inactive
10,FRLILM,inactive
11,FRLVGNIRTFYGYR,inactive
12,FRMNSLRVSLMESVCSSHT,1.1 ± 0.11
13,FRPGLYSYMPSC,-0.451 ± 0.88
14,FRPLFSESHYPASLTGTGHN,inactive
15,FRRYRRCDLGLLSSMRPSAH,inactive
16,FRVLDRSKKVNYRSFLYLIR,inactive
17,FRVSVIFIFGCHMFGVLMTP,inactive
18,FRVTY,inactive
19,FRYNDFMRD,inactive
20,FRYPIYGFFGMTGPTNSLTA,inactive
21,FRYVVHTESYTIESVEVIR,1.22 ± 0.094
22,FSAPL,inactive
23,FSCCITNPTYTYCWEMVGVS,inactive

row,Substance,amyloid nucleation score
1,FSCDHLGWLVVSVCSGLRWL,inactive
2,FSFPCRTVAWFWYDFHFIGL,inactive
3,FSFYFQDNTIKRWEAIED,inactive
4,FSIRDSTTLKVPEECLSTWI,inactive
5,FSKFQTYVSHMVVYGIMSGN,inactive
6,FSKIHI,inactive
7,FSLDVDDGVFS,inactive
8,FSLRVGMKVHISKIRLGCCK,inactive
9,FSLTLCWHWSWVQCAGVPWG,2.05 ± 0.097
10,FSMAFYMYG,0.163 ± 0.25
11,FSMWCVSCN,inactive
12,FSNGMVLFF,inactive
13,FSNVRDFGFGKDY,inactive
14,FSPCISDCGVDESIKVLRKM,inactive
15,FSPTIGTTWDTLMF,inactive
16,FSRFSNAFPKNCWVLLVENS,inactive
17,FSSNTT,inactive
18,FSSSPR,inactive
19,FSVMYRWRYFGDSAFWISVF,inactive
20,FSVSASEKHFFSCVMLYCVS,0.935 ± 0.1
21,FSYCDGRLLSSNRYYSESLY,inactive
22,FSYCSLWGKCVCDIFTNGQL,2.81 ± 0.051
23,FTAQRGSTCHPYVRKHEYI,inactive

row,Substance,amyloid nucleation score
1,FTAWTLLLSGMFVIASANMA,inactive
2,FTCDTMKYSSRYSLFYVRVS,0.205 ± 0.77
3,FTNNI,inactive
4,FTPDVRWLNVLNSHNGVIEV,inactive
5,FTYGMSSVFVGHF,inactive
6,FVAVVSRDISNYSRGRSEKR,inactive
7,FVERTRKRVNVRRNRHVTET,inactive
8,FVFCLEGTGGVFDFGFGIGI,inactive
9,FVLHNS,inactive
10,FVLIIYLLACSEMLFVFKEV,inactive
11,FVLRTNWGGISVYIYDVCSC,-0.238 ± 1.1
12,FVNCLCKRARYYSSGGLSSP,-0.512 ± 1.4
13,FVSYRESKKDMQACCALCRS,0.965 ± 0.11
14,FVVVHLSVKSIVPAFVSWDR,-0.36 ± 0.84
15,FVVYL,inactive
16,FVWNMFSASLIKI,inactive
17,FVYWNLSAYVRILVVDGNGR,inactive
18,FWCIGEIRCTYMWRSQCFCV,inactive
19,FWGFAFPFTSHGGPKNLEES,inactive
20,FWGFPRKSYADMMGSTRGSA,inactive
21,FWGMLVEYLVNSQCYIKFE,inactive
22,FWGWLARTNLKILSILFNLI,inactive
